Test results from patent publication US6890900B2, “Methods for treating or preventing diseases of the oral cavity” (Campina B.V., priority 2001, dated 2005).

Test system: Streptococcus pyogenes ATCC #19615
Experiment: LF/GMP assay, viable plate count (pour plate) of broth culture
Assay type: cell-based
Parameters: key to MIBC: NCF: No Effective Concentration Found
Conditions: 35° C.; for Colony Counts: viable plate count
Procedure: Bacterial strains used in this study were Pseudomonas aeruginosa ATCC #27853, Streptococcus mutans ATCC #33535, Streptococcus pyogenes ATCC #19615, and Actinobacillus haemophilus ATCC #43717 and an oral swab from a healthy adult. Bacteria were grown on blood/BHT media (Brain Heart Infusion Agar with protease peptone, sodium chloride, glucose, di-sodium phosphate, and agar, Oxoid, Hampshire England, Sheep's Blood) in the presence of 5% CO2 at 35° C. […] The 0.5 McFarland value is approximately equivalent to 1.0×10^8 organisms. One ml of the appropriate bacterial dilution was taken using a sterile pipette and introduced into 8 ml of sterilized BHI broth. […] By pipette, 9 ml of broth was placed into medium test tubes as means of a control and 8 ml test tubes were prepared for the concentration tests). […] This solution was filtered through a 0.45 μm filter. […] Example for calculating 2,500 ppm dilution (1,000 ppm=0.1%): [formula] [formula] [formula] To study the kinetics of LF/GMP binding, each strain of bacteria was taken separately with a sterile pipette and placed into an 8 ml BHI broth test tube, vortexed, and incubated in the presence of 1 ml of LF or GMP for 18-24 hours at 35° C. with 5% CO2. In the combination procedure, 0.5 ml of both LF and […] were taken as 1 ml inoculations. This technique was used to determine the density of living (viable) cells in inoculated broth cultures. It involves plating a bacterial sample and counting the resulting colonies after incubation. A serial dilution of the original broth was taken prior to plating. The serial dilution is necessary to reduce the density of organisms in order to create countable plates. Only plates containing between 25 and 250 colonies are considered countable. Cell densities are traditionally recorded as CFU (colony forming unit)/ml. […] Formula: [formula] The assays required the use of a pour plate technique. The pour plate technique adds a step to the conventional serial dilution. The 1 ml of dilution is added to a warm emulsion of dilute nutrient (BHI) agar to produce an agar overlay in the petri plates. After incubation, the bacterial growth covers the entire plate but individual cellular movement has been restricted by the soft agar overlay. Each colony formed is assumed to have originated from a single CFU. The plates were gently mixed, inverted, and incubated for 18-24 hour at 35° C. Using a control (one broth tube inoculated with a bacterial strain, but no LF), the effectiveness of LF was examined. Each test tube containing a specified amount of LF (50, 100, 250, 500, 1,000 ppm and 3000 ppm) was diluted and plates were poured. After incubating the plates for 24 hours at 35° C. with 5% CO2 (the normal conditions of an oral cavity), the bacterial recovery count was taken and the results were compared to the control. A. haemophilus, S. mutans, S. pyrogenes and an oral culture were tested at 35° C. Pseudomonas aeruginosa was tested at both room temperature and 35° C. with 5% CO2. This was done because P. aeruginosa is not strictly an oral pathogen. It is commonly found in the environment in various conditions. It can be found in the environment and oral intake can cause inflammation in the oral cavity. Most normal oral bacteria are only found in the mouth and are not taken in from outside factors. Therefore, P. aeruginosa is a threat in both temperature settings. Table 1 depicts the minimum inhibitor concentration (MBEC) for each of the bacterial strains at 35° C. S. pyogenes and the oral culture were not effected by LF at any tested concentration. […] (see Table 2).

B1: LF: Bovine lactoferrin, iron-binding glycoprotein purified from milk, provided by DMV International (protein, UniProt P24627 20-708, looked up)
Lactotransferrin: APRKNVRWCTISQPEWFKCRRWQWRMKKLGAPSITCVRRAFALECIRAIAEKKADAVTLDGGMVFEAGRDPYKLRPVAAEIYGTKESPQTHYYAVAVVKKGSNFQLDQLQGRKSCHTGLGRSAGWIIPMGILRPYLSWTESLEPLQGAVAKFFSASCVPCIDRQAYPNLCQLCKGEGENQCACSSREPYFGYSGAFKCLQDGAGDVAFVKETTVFENLPEKADRDQYELLCLNNSRAPVDAFKECHLAQVPSHAVVARSVDGKEDLIWKLLSKAQEKFGKNKSRSFQLFGSPPGQRDLLFKDSALGFLRIPSKVDSALYLGSRYLTTLKNLRETAEEVKARYTRVVWCAVGPEEQKKCQQWSQQSGQNVTCATASTTDDCIVLVLKGEADALNLDGGYIYTAGKCGLVPVLAENRKSSKHSSLDCVLRPTEGYLAVAVVKKANEGLTWNSLKDKKSCHTAVDRTAGWNIPMGLIVNQTGSCAFDEFFSQSCAPGADPKSRLCALCAGDDQGLDKCVPNSKEKYYGYTGAFRCLAEDVGDVAFVKNDTVWENTNGESTADWAKNLNREDFRLLCLDGTRKPVTEAQSCHLAVAPNHAVVSRSDRAAHVKQVLLHQQALFGKNGKNCPDKFCLFKSETKNLLFNDNTECLAKLGGRPTYEEYLGTEYVTAIANLKKCSTSPLLEACAFLTR
50 ppm, 24 h
  Colony Counts: 5.8 × 10^7
100 ppm, 24 h
  Colony Counts: 1.5 × 10^7
500 ppm, 24 h
  Colony Counts: 7.8 × 10^7
3,000 ppm, 24 h
  Colony Counts: 1.7 × 10^8
Lactoferrin/GMP 250/0 ppm (LF alone)
  Total Log Reduction: 0 log
Lactoferrin/GMP 3,000/0 ppm (LF alone)
  Total Log Reduction: 0 log
At the MIBC, vs control
  # Log Reductions: 0 log
Single agent, any tested concentration
  effect on growth (in words): not effected
Single agent, 24 h, 5% CO2
  MIBC: NCF
